This series deals with the molecule itself. Nature of the series: dynamic light scattering + fluorescence microscopy.

B1: Dhh1^48-425 (domain or fragment, yeast, UniProt P39517 48-425, looked up)
chain: FEDFYLKRELLMGIFEAGFEKPSPIQEEAIPVAITGRDILARAKNGTGKTAAFVIPTLEKVKPKLNKIQALIMVPTRELALQTSQVVRTLGKHCGISCMVTTGGTNLRDDILRLNETVHILVGTPGRVLDLASRKVADLSDCSLFIMDEADKMLSRDFKTIIEQILSFLPPTHQSLLFSATFPLTVKEFMVKHLHKPYEINLMEELTLKGITQYYAFVEERQKLHCLNTLFSKLQINQAIIFCNSTNRVELLAKKITDLGYSCYYSHARMKQQERNKVFHEFRQGKVRTLVCSDLLTRGIDIQAVNVVINFDFPKTAETYLHRIGRSGRFGHLGLAINLINWNDRFNLYKIEQELGTEIAAIPATIDKSLYVAENDET
Take B1: the binding result was “binds”.
